Experiments:
PKC-theta = biological target: T1, PKC-theta (Homo sapiens, UniProt Q04759); experiment: In vitro kinase assay: peptide phosphorylation by PKC-theta; assay type: biochemical; details: for PKC theta phosphorylation: normalized to best substrate
T1 construct: His-tag; made in house; host or cells: baculovirus-infected Sf9 cells
How it was run: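 Recombinant human PKC-theta, expressed in baculovirus-infected Sf9 cells and purified on a nickel chelating column, was incubated with biotinylated peptides, 100 μM ATP containing ^32P-gamma ATP, and PKC buffer with CaCl2, MgCl2, phosphatidyl serine and PMA at 30° C. Reactions were stopped with ATP/EDTA. Peptides were captured on streptavidin-coated plates, and phosphorylation was normalized to the best substrate.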

PKC = experiment: In vitro phosphorylation by PKC (average of isoforms alpha, epsilon, delta, theta); assay type: biochemical; details: for average (phosphorylation by PKC-theta, -delta, -epsilon, -alpha): average over PKC-theta, -epsilon and -alpha at 10 and 1 uM peptide, relative to best substrate; for PKC average: average of PKC-alpha, -epsilon, -theta, normalized to best substrate

T1 sequence (Q04759 whole entry): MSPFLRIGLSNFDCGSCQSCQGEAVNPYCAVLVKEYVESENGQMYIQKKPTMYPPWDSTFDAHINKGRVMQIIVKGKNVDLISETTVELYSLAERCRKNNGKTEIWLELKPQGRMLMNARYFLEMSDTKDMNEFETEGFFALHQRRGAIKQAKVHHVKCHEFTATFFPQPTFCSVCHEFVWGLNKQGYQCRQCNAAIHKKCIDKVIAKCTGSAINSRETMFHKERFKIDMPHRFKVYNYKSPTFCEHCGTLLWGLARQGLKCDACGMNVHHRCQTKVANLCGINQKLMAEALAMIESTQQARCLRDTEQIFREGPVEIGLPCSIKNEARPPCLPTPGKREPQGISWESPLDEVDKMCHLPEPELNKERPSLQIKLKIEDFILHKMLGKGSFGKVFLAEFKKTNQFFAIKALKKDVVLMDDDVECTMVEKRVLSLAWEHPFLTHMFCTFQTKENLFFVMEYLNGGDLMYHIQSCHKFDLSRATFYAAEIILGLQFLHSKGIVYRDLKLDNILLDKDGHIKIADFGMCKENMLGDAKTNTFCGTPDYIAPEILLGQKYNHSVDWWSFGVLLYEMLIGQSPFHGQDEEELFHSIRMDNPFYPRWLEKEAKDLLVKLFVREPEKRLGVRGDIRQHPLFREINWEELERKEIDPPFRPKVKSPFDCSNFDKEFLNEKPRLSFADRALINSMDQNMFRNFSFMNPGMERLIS

Substance | phosphorylation by PKC theta (PKC-theta; peptide concentration 1 uM) | phosphorylation by PKC theta (PKC-theta; peptide concentration 10 uM) | average (phosphorylation by PKC-theta, -delta, -epsilon, -alpha) (PKC) | PKC theta phosphorylation (PKC-theta) [%] | PKC average (PKC) [%]
153 (TYLLPDKSRQGKRKTSIKRD) [compound 153] | 22 | 18 | 23 |  | 
152 (DLIEGRKGAQIVKRASLKRG) [compound 152] | 31 | 30 | 23 |  | 
81 (KRERKTSSKSSVRKRR) [compound 81] |  |  |  | 46 | 56
91 (VHYTSKDTLRKRHYWR) [compound 91] |  |  |  | 10 | 40
88 (KKPFKLSGLSFKRNRKE) [compound 88] |  |  |  | 38 | 43
98 (AGPLRKSSLKKGGRL) [compound 98] |  |  |  | 22 | 27
149 (RVVQSVKHTKRKSSTVMK) [compound 149] | 13 | 14 | 25 |  | 
97 (KKRSSKKEASMKKVVRP) [compound 97] |  |  |  | 31 | 28
87 (RQGKRKTSIKRDTVNPL) [compound 87] |  |  |  | 65 | 47
151 (PQNSLKASNRKKKRTSFKRK) [compound 151] | 25 | 19 | 24 |  | 
150 (VDPFYEMLAARKKRISVKKK) [compound 150] | 35 | 35 | 24 |  | 
148 (RELEQLKAEYLERRASRRRA) [compound 148] | 34 | 34 | 26 |  | 

From patent publication US20050064507A1, “Determining kinase specificity” (priority 2003, published 2005)
